Measurements: PMC3382207, “Proteolytic Processing of ErbB4 in Breast Cancer” (PLoS ONE, 2012)

Columns and labels:
soluble ErbB4 ectodomain [1] = target: T1, soluble ErbB4 ectodomain (UniProt Q15303)
T1 sequence: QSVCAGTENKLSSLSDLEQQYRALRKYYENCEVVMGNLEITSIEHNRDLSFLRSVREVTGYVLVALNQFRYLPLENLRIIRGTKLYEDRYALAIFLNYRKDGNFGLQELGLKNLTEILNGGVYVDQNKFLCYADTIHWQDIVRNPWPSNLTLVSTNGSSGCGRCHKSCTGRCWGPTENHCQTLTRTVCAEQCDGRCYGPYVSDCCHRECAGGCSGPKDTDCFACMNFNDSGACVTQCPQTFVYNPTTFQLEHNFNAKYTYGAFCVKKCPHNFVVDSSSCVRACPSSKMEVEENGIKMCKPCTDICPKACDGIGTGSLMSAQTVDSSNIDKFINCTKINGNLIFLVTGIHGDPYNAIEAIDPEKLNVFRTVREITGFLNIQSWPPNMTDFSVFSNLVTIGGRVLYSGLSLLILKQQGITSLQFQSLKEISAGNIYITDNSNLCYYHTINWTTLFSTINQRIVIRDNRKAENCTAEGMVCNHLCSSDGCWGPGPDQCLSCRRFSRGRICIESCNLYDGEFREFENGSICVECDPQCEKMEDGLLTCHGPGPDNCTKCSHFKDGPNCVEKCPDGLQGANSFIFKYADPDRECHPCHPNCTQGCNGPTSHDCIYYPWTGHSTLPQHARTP

soluble ErbB4 ectodomain [2] = target: T1, soluble ErbB4 ectodomain; remark: listed apart in the source
[3] = target: T2, His-tagged extracellular subdomain IV of ErbB4 (Homo sapiens, isoform JM-a, UniProt Q15303); test: Western blot; conditioned media of COS-7 transfectants expressing the His-tagged subdomains, blotted under non-reducing conditions, mAb 1479 as the primary antibody; anti-pentaHis as control of expression; conditions: one partner purified
T2 construct: ErbB4 extracellular subdomain IV; construct limits are in File S1; source: COS-7, transiently transfected, in conditioned medium; not shown: His tag, C-terminal, kept
T2 sequence (Q15303 whole entry, looked up, tested part not stated, canonical isoform): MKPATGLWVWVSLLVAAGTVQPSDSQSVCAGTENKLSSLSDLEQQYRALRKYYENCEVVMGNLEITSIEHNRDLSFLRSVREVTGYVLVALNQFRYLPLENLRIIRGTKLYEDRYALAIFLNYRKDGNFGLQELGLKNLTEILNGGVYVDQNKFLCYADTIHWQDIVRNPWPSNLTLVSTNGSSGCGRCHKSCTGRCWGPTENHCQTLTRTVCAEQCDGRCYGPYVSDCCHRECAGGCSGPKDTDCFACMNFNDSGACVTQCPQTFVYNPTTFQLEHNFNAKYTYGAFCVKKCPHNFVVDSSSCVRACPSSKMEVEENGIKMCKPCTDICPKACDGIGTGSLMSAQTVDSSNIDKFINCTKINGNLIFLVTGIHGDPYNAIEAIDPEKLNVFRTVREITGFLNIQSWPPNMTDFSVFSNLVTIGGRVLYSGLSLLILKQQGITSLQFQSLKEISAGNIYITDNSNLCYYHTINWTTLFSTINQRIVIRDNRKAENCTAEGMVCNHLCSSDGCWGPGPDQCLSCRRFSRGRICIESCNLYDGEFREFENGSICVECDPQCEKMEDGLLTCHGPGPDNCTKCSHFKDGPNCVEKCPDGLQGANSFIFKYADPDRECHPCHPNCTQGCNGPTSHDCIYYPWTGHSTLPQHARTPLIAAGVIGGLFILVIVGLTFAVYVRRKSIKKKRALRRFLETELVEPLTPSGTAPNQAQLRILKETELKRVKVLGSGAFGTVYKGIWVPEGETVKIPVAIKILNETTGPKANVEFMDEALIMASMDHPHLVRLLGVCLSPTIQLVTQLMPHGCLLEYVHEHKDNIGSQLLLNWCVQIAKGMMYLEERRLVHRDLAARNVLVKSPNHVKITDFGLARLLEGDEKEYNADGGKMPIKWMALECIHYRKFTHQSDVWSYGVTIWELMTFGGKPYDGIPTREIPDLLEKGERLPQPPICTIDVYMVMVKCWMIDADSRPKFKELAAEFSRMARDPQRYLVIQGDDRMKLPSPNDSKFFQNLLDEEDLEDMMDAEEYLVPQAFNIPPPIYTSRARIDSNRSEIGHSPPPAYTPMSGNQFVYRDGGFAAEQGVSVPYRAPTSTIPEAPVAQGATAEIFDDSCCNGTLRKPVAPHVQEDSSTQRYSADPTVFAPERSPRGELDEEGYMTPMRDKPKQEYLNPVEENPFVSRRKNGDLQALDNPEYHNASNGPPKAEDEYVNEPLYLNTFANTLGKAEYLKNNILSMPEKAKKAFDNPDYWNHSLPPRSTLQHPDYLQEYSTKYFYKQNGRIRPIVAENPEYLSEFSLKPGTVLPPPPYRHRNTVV

B1: anti-ErbB4 monoclonal antibody mAb 1479 (antibody, V domains shown)
VH: QVTLKESGPGILQPSQTLSLTCSFSGFSLSTYGIGVGWIRQPSGKGLEWLAHIWWNDNKYYNIALRSRLTISKDTSNNQVFLKIASVDTADTATYYCARIPDDHYFDYWGQGTTLTVSS
VL: DVLMTQTPLSLPVSLGDQASISCRSSQSIVHSNGNTYLEWYLQKPGQSPKLLIYKVSNRFSGVPDRFSGSGSGTDFTLKISRVEAEDLGVYYCFQGSHVPWTFGGGTKLEIK
notes: constant part of the IgG2 isotype; mouse monoclonal antibody, IgG2 isotype
relative proportion of the 100 kD ectodomain fragment of total ErbB4 in T-47D xenografts (Western blot with mAb 1464), control IgG against mAb 1479 (soluble ErbB4 ectodomain [1]): 9%
relative proportion of the 80 kD carboxy-terminal fragment of the total ErbB4 in T-47D xenografts (Western blot with E-200), control IgG against mAb 1479 (soluble ErbB4 ectodomain [2]): 74%
binding result [3]: binds
